# Laboratory results reported in PMC12548415 (Journal of Virology, 2025).
# B1: rRDPV-10 virus (rescued from the infectious cDNA clone pRDPV-10 of raccoon dog parvovirus strain RDPV/FLD/2010), capsid of VP2 (complex)
# chain: MSDGAVQPDGGQPAVRNERATGSGNGSGGGGGGGSGGVGISTGTFNNQTEFKFLENGWVEITANSSRLVHLNMPESENYRRVVVNNMDKTAVNGNMALDDIHAQIVTPWSLVDANAWGVWFNPGDWQLIVNTMSELHLVSFEQEIFNVVLKTVSESATQPPTKVYNNDLTASLMVALDSNNTMPFTPAAMRSETLGFYPWKPTIPTPWRYYFQWDRTLIPSHTGTSGTPTNIYHGTDPDDVQFYTIENSVPVHLLRTGDEFATGTFFFDCKPCRLTHTWQTNRALGLPPFLNSLPQSEGATNFGDIGVQQDKRRGVTQMGNTNYITEATIMRPAEVGYSAPYYSFEASTQGPFKTPIAAGRGGAQTDENQAADGNPRYAFGRQHGQKTTTTGETPERFTYIAHQDTGRYPEGDWIQNINFNLPVTNDNVLLPTDPIGGKTGINYTNIFNTYGPLTALNNVPPVYPNGQIWDKEFDTDLKPRLHVNAPFVCQNNCPGQLFVKVAPNLTNEYDPDASANMSRIVTYSDFWWKGKLVFKAKLRASHTWNPIQQMSINVDNQFNYVPSNIGGMKIVYEKSQLAPRKLY
# Target: T1, raccoon dog transferrin receptor ectodomain (recombinant RDTfR, from residue 121, C-terminal 6x His) (raccoon dog)
# T1 construct: transferrin receptor type 1 of the raccoon dog, ectodomain starting at amino acid residue 121 of XM_055316305; Cloned with the N-terminal signal peptide GP67; also called recombinant RDTfR protein; purified RDTfR; source: Sf9 cells (pFastBacI-RDTfR), purified (Ni-NTA, dialysed in PBS); not shown: His6, C-terminal, kept
# Assay: BLI; virus immobilised on APS probe (Gator Prime), PBS as running buffer; three concentrations (serial dilutions) of RDTfR in PBST (PBS, 0.05% Tween-20) applied; global fit, 1:1 binding model
# Conditions: both partners purified
binder,measurement,value
B1,Kd,137 nM
same,koff,0.0071 s⁻¹
same,kon,51800 M⁻¹ s⁻¹
